Laboratory results published in patent US20150105322.

Experiments:
[1] = target: non-N-glycosylated human annexin A2-6×His (N62A) group #1 expressed in Pichia pastoris
[2] = target: glycosylated human annexin A2-6×His expressed in Pichia pastoris
[3] = target: non-N-glycosylated human annexin A2-6×His (N62A) group #2 expressed in Pichia pastoris
[4] = target: E. coli expressed human annexin A2, P07355
Chain of E. coli expressed human annexin A2, P07355 (P07355 whole entry): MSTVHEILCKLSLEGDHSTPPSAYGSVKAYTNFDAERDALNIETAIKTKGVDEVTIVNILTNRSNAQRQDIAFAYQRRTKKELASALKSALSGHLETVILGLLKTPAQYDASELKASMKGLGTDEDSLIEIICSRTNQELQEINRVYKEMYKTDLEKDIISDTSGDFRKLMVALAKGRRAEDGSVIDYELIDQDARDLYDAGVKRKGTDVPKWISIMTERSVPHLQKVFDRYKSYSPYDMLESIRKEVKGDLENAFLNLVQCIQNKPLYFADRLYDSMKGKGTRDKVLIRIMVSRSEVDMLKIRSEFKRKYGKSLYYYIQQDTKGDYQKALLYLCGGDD

Chain of non-N-glycosylated human annexin A2-6×His (N62A) group #1 expressed in Pichia pastoris (chain, as listed by the source N62A): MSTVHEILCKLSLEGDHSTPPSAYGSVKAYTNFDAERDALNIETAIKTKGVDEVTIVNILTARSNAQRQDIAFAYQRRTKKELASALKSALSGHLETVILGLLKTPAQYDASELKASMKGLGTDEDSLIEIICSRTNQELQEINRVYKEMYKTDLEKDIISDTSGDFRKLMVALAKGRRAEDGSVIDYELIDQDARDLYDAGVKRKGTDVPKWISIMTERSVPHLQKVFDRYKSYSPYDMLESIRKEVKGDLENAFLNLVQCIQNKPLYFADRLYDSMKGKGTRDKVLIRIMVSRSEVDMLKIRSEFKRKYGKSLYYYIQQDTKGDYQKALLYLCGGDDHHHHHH
Chain of non-N-glycosylated human annexin A2-6×His (N62A) group #2 expressed in Pichia pastoris (chain, as listed by the source N62A): as above
Chain of glycosylated human annexin A2-6×His expressed in Pichia pastoris (chain, as listed by the source): as the sequence (chain, as listed by the source N62A) above, with A62N counted along it

B1: tissue plasminogen activator (protein)
chain: SYQVICRDEKTQMIYQQHQSWLRPVLRSNRVEYCWCNSGRAQCHSVPVKSCSEPRCFNGGTCQQALYFSDFVCQCPEGFAGKCCEIDTRATCYEDQGISYRGTWSTAESGAECTNWNSSALAQKPYSGRRPDAIRLGLGNHNYCRNPDRDSKPWCYVFKAGKYSSEFCSTPACSEGNSDCYFGNGSAYRGTHSLTESGASCLPWNSMILIGKVYTAQNPSAQALGLGKHNYCRNPDGDAKPWCHVLKNRRLTWEYCDVPSCSTCGLRQYSQPQFRIKGGLFADIASHPWQAAIFAKHRRSPGERFLCGGILISSCWILSAAHCFQERFPPHHLTVILGRTYRVVPGEEEQKFEVEKYIVHKEFDDDTYDNDIALLQLKSDSSRCAQESSVVRTVCLPPADLQLPDWTECELSGYGKHEALSPFYSERLKEAHVRLYPSSRCTSQHLLNRTVTDNMLCAGDTRSGGPQANLHDACQGDSGGPLVCLNDGRMTLVGIISWGLGCGQKDVPGVYTKVTNYLDWIRDNMRP
- tPA-mediated plasmin-generation (fluorogenic plasmin substrate D-Val-Leu-Lys-AMC, with N-terminal lysine plasminogen) [1]: restored the enhancer function completely
- tPA-mediated plasmin-generation (fluorogenic plasmin substrate D-Val-Leu-Lys-AMC, with N-terminal lysine plasminogen) [2]: did not significantly enhance tPA-mediated plasmin-generation
- tPA-mediated plasmin-generation (fluorogenic plasmin substrate D-Val-Leu-Lys-AMC, with N-terminal lysine plasminogen) [3]: The enhancer function was partially (about 50%) restored in group #2
- tPA-mediated plasmin-generation (fluorogenic plasmin substrate D-Val-Leu-Lys-AMC, with N-terminal lysine plasminogen) [4]: comparable to the E. coli expressed human annexin A2 (positive control, labeled as t1+bac-rA2)
